Laboratory results reported in PMC11313003.

Experiments:
[1] = molecular target: soluble trimeric-RBD form of the SARS-CoV-2 S protein (RBD aa 330-532, Wuhan strain, with a foldon t (SARS-CoV-2 (ancestral Wuhan strain) | T4 (as in 'T4 fibritin')) (UniProt P0DTC2)); test: SEC
[2] = molecular target: soluble trimeric-RBD form of the SARS-CoV-2 S protein (RBD aa 330-532, Wuhan strain, with a foldon t (SARS-CoV-2 (ancestral Wuhan strain) | T4 (as in 'T4 fibritin')) (UniProt P0DTC2)); test: Western blot under non-reducing conditions

## soluble trimeric-RBD form of the SARS-CoV-2 S protein (RBD aa 330-532, Wuhan strain, with a foldon t (from UniProt P0DTC2 330-532) (domain or fragment)
[1]
  stoichiometry N: 3
[2]
  stoichiometry N: 3
